Results taken from US6645504B1, “Bystander suppression of type I diabetes by oral administration of glucagon” (AutoImmune Inc., priority 1987, dated 2003).

Key:
[1] = test system: EAE; test: In vivo bystander suppression of EAE (MBP/CFA plus secondary antigen); design: species or system Lewis rats; conditions: MBP fed before MBP/CFA immunization; FIG. 6B
Procedure: Immunization Of Animals. Animals were immunized with 25 μg of MBP in the footpad, emulsified in an equal volume of CFA containing 4 mg/ml of Mycobacterium tuberculosis (Difco Labs, Detroit, Mich.) in order to induce a substantial EAE disease state. For in vivo bystander suppression experiments, 50-300 μg of the secondary antigens OVA, BSA or KLH were injected subcutaneously in the same footpad in 100 μl PBS 8 hours after primary immunization with MBP CFA.
Clinical Evaluation. Animals were evaluated in a blinded fashion every day for evidence of EAE in order to correlate the clinical manifestations of Bystander Suppression with the in vitro assays described below. Clinical severity of EAE was scored as follows: 0, no disease; 1, limp tail; 2, hind limb paralysis; 3, hind limb paraplegia, incontinence; 4, tetraplegia; 5, death. Mean maximal clinical severity was calculated as previously described for each experimental group (7). Statistical analysis was performed using a one-tailed student's t test and a chi square analysis for comparing incidence between groups.
Induction Of Oral Tolerance. Animals were fed 1 mg MBP, OVA, BSA or KLH dissolved in 1 ml PBS or PBS alone, by gastric intubation using an 18-gauge stainless steel animal feeding needle (Thomas Scientific, Swedesboro, N.J.). Animals were fed five times (total dose of 5 mg), at intervals of 2-3 days with the last feeding 2 days before immunization.

[2] = test system: insulitis; test: Suppression of insulitis in NOD mice by oral administration; type: in vivo; conditions: fed orally
Procedure: NOD mice (Taconic Labs) were fed one mg of glucagon, or one mg of porcine insulin (both commercially purchased) or equal molar amounts of insulin A-chain, B-chain and B-chain peptides described below (all insulin fragments having been synthesized) twice weekly for five weeks and sacrificed at ten weeks of age.
Control animals were fed a non-pancreatic (i.e., unrelated) peptide, GAP. Insulitis was measured as a semiquantitative insulitis score according to the method described in Zhang, Z. J., PNAS(USA), 88:10252-10256, 1991.
The insulin B-chain peptides corresponded to amino acid residues 1-12 (B1-12), 10-22 (B10-22), 11-30 (B11-30) and 23-30 (B23-30). All animals were fed 10 times over three weeks.

[3] = test system: MBP specific T-cells; test: In vitro suppression of proliferative responses by supernatants; type: cell-based, Lewis rats; conditions: supernatants of splenocytes from fed animals stimulated in vitro with MBP; FIG. 1
Procedure: Induction Of Oral Tolerance. Rats were fed 1 mg of MBP dissolved in 1 ml PBS, or PBS alone, by gastric intubation using a 18-gauge stainless steel animal feeding needle (Thomas Scientific, Swedesboro, N.J.). Animals were fed five times at intervals of 2-3 days with the last feeding two days before immunization. The purpose of this was to induce tolerance.
In Vitro Suppression Of Proliferative Responses By Supernatants. Spleen cells were removed 7-14 days after the last feeding and a single cell suspension prepared by pressing the spleens through a stainless steel mesh. For preparation of supernatants, spleen cells at a concentration of 5×10^6 cells/ml were stimulated in vitro with MBP (50 μg/ml) in 10 ml of proliferation medium. Proliferation medium consisted of RPMI 1640 (GIBCO, Grand Island, N.Y.) supplemented with 2×10^−5 M 2-mercaptoethanol, 1% sodium pyruvate, 1% penicillin and streptomycin, 1% glutamine, 1% HEPES buffer, 1% nonessential amino acids and 1% autologous serum. […] Cultures were harvested onto fiberglass filters using a multiharvester and counted using standard liquid scintillation techniques.
Purification Of T-Cell Subsets. […] The quantity of magnetic beads used was calculated as being 10 times the estimated target cell population. […]

[4] = test system: EAE; test: EAE after MBP/CFA immunization with oral tolerization and in vivo anti-TGF-β antiserum; design: species or system Lewis rats; conditions: orally tolerized animals treated 5 times with 50 μl control serum; score 0-5
[5] = test system: EAE; test: I.V. tolerization with MBP and MBP peptides in EAE induced with whole guinea pig MBP; type: in vivo, SJL/J mice; conditions: days 8 and 9 post immunization, FIG. 16
Source text: FIG. 16 is a bar graph showing the effect of intravenous tolerization with MBP and disease inducing and non-inducing fragments thereof on induced EAE expression in SJL/J mice.
Finally, the suppression of EAE by I.V. tolerization with MBP and MBP peptides prior to disease expression (on days 8 and 9 post immunization) was examined.

B1: MBP: Guinea pig myelin basic protein purified from brain tissue (protein, UniProt P25188 1-167, looked up)
Myelin basic protein: ASQKRPSQRHGSKYLATASTMDHARHGFLPRHRDTGILDSIGRFFGSDRAAPKRGSGKDSHHAARTTHYGSLPQKSQRSQDENPVVHFFKNIVTPRTPPPSQGKGRGLSLSRFSWGAEGQKPGFGYGGRADYKSKGFKGAHDAQGTLSKIFKLGGRDSRSGSPMARR
disease severity [1]: 1.1±0.1 | suppression of insulitis (in words) [2]: No suppression was observed | Insulitis Score ([2]; amount (mg) per Table 5, sacrificed at ten weeks of age): 2.14 | proliferation of the MBP line after addition of supernatants [3]: reduction in the proliferation of the MBP line | maximal disease severity [4]: 1.0±0.2 | suppression of EAE induced with whole guinea pig MBP [5]: effective in suppressing EAE
